Measurements as given in PMC12152837, “Semaglutide Aggregates into Oligomeric Micelles and Short Fibrils in Aqueous Solution” (Biomacromolecules, 2025).
Values joined by “and” are separate entries in the source; they are usually repeats but may differ in a detail not shown here. Equal entries are not always repeated.

Experiments:
[1] = Nile red fluorescence assay of critical micelle concentration; type: physicochemical; settings: 45-day aged sample in water, stored at 4 °C; 5 μM Nile red, λexc 550 nm, peak fluorescence intensity at 635 nm versus concentration
Method: Fluoroscence of tryptophan in semaglutide was excited at λexc= 295 nm, and fluorescence emission spectra were measured using a Cary Eclipse spectrofluorometer (Agilent, Didcot, UK) with excitation and emission slits of 5 nm. The spectra were recorded from 300 to 600 nm. The temperature was maintained at 20 °C during the measurements. This protocol was performed using fresh Semaglutide samples and then repeated using the same samples stored at 4 °C for 40 days, protected from the light. To determine the critical aggregation concentration (CAC) of semaglutide using Nile red, Semaglutide samples (45-day aged) were prepared in 5 μM of Nile red. The wavelength for excitation was set at λexc = 550 nm with 5 nm windows, and spectra were collected from 570 to 750 nm.
SI Fig.S13. Nile red fluorescence assay of critical micelle concentration (CMC) for a
45-day aged sample. (a) Plot of peak fluorescence intensity (l = 635 nm) versus
concentration, (b) Original fluorescence spectra.
Fluorescence Intensity (l635 nm)
Fluorescence intensity / arb. units […]

Caco-2 cells = assay: Transepithelial electrical resistance (TEER) transwell permeability assay; type: cell-based; settings: Caco-2 monolayer on transwell, DMEM without serum, 37 °C, pH 7.4, duplicate wells, relative to DMEM control
Method: As a model of the gut epithelium, 1.5 × 10^5 Caco-2 (ATCC, EUA) immortalized colorectal adenocarcinoma cells were seeded into 12 mm Millicell hanging cell culture transwells, with a PET lower membrane permeated by pores 0.4 μm in diameter. The transwells were then inserted into a 12-well plate to create a bicameral chamber system separated by the transwell PET membrane. The cells were cultivated until reaching confluence in DMEM supplemented with 10% FBS for at least 3 weeks before starting the TEER assay in order to form semipermeable membranes composed of Caco-2 cells separating the two chambers. For the TEER assay, a multimeter (TLC Electrical, UK). The microelectrodes were immobilized in a chopstick pattern and coated in carbon conductive ink to prevent corrosion, similar to previous reports using low-cost Volt-ohmeters for TEER. −
The resistance for the Caco-2 membrane tissue (R tissue) is measured in Ohms (Ω) and defined as Rtissue=RTotal−RBlank
This represents the total resistance of the system containing the semipermeable membranes minus the initial resistance from the cell containing only media or PBS. […]
The area calculated for the transwells used in this assay is M Area (cm^2) = 1.12 cm^2. […] The TEER was calculated and is reported as % values relative to controls incubated without semaglutide.

[2] = Small-angle X-ray scattering (SAXS) of aggregates in water; type: physicochemical; settings: for effective charge modulus per micelle z eff: Hayter–Penfold structure factor fit; for micelle inner core radius Ri / micelle outer radius Ro ± Gaussian polydispersity: core-shell sphere form factor
Method: (§1) Semaglutide powder was weighed, and the samples were prepared in glass vials using ultrapure water. To monitor the aggregation and stability, some samples were left to age up to 40 days in the fridge at 4 °C, protected from the light. The pH was observed just after preparation and after 40 days of incubation at 4 °C using pH strips due to the small volume of sample available. No evidence of microemulsion formation was observed. ^20 pH values were recorded as follows: 1 wt % fresh pH 5.5, 1 wt % aged: pH 7, 0.1 wt % fresh: pH 6.5, 0.1 wt % aged: pH 7. It is notable that the pH crosses the pK a of the N-terminal histidine (pK a = 6 is the accepted value for isolated histidine) for the more concentrated solution upon aging.
SAXS experiments were performed on beamline B21 at Diamond Light Source (Harwell, UK) and SWING at synchrotron SOLEIL (Gif-sur-Yvette, France) and on the labSAXS instrument at Diamond Light Source.
On B21, the sample solutions were loaded into the 96-well plate of an EMBL BioSAXS robot and then injected via an automated sample exchanger into a quartz capillary (1.8 mm internal diameter) in the X-ray beam. The quartz capillary was enclosed in a vacuum chamber to avoid parasitic scattering. After the sample was injected into the capillary and reached the X-ray beam, the flow was stopped during the SAXS data acquisition. Beamline B21 operates with fixed camera length (3.9 m) and fixed energy (12.4 keV). The images were captured by using a PILATUS 2 M detector. Data processing was performed using the dedicated beamline software ScÅtter. […]
SAXS experiments (extending to higher q) were also performed using a lab-based Xeuss 3.0 (Xenocs, France) instrument at Diamond Light Source, equipped with a liquid gallium MetalJet X-ray source (Excillum, Sweden) with an energy of 9.24 keV, corresponding to a wavelength of 1.34 Å. SAXS patterns were measured for 28800 s with an incident X-ray photon flux of roughly 4.06 × 10^6 ph/s on an EIGER2 R 1M detector (Dectris, Switzerland), and the sample-to-detector distance was set to 315 mm, giving a q range of 0.17–1.1 nm^–1. The beam size is roughly 0.4 × […] on the sample. The sample environment was a custom-designed low-noise flow-through cell having a thickness of roughly 0.7 mm and an area of 1.1 mm × 1.1 mm. The window material is silicon nitride. Silver behenate (layer spacing, d = 58.38 Å) was used to calibrate the SAXS data. SAXS images were analyzed using the IDL-based AXcess software package or software DAWN.
The association number of the micelle can be obtained in a model-independent fashion from the forward scattering intensity of the SAXS data in dilute solution. , The measured synchrotron SAXS data presented here is in absolute units (cm^–1) and the forward scattering (at q = 0) can be written as 1 I(0)=cmicMmic[r0vp(ρl−ρ0)]^2/NA Here, c mic is the concentration of micelles, M mic is the micelle molar mass, r 0 is the classical electron radius [0.28179 × 10^–12 cm e ^–1], v p is the partial specific volume, and ρl and ρ0 represent the lipopeptide and solvent (water) electron density. […] Rearranging eq gives 2 Mmic=I(0)NA/cmic[r0vp(ρl−ρ0)]^2 […]
Table S1. Fit parameters to the SAXS data in Fig.2b using a core-shell sphere form form factor with the Hayter-Penfold RMSA structure factor.1 The monodisperse approximation to factor the form and structure factors of isotropic solutions of centrosymmetric particles is assumed. Fitting performed using SASfit.2-3 […]
(Diamond synch.) (Diamond synch.) (Diamond synch.) (Lab SAXS)b […]
Key: Core-Shell Sphere Form factor: Ro: outer radius (σc Gaussian polydispersity in R0), Ri: inner radius, µ: ratio of scattering contrast of inner core/outer core, η: scattering contrast of core. Structure factor: RHS, hard sphere radius, φ: effective volume fraction zeff: effective charge modulus, I: ionic strength (temperature fixed at T = 293 K).
Gaussian coils: Rg: radius of gyration, Ic: intensity. Background: BG (constant). […]

[3] = Cryogenic-TEM imaging of aggregates; type: physicochemical
Method: Semaglutide powder was weighed, and the samples were prepared in glass vials using ultrapure water. […] The pH was observed just after preparation and after 40 days of incubation at 4 °C using pH strips due to the small volume of sample available. No evidence of microemulsion formation was observed. ^20 pH values were recorded as follows: 1 wt % fresh pH 5.5, 1 wt % aged: pH 7, 0.1 wt % fresh: pH 6.5, 0.1 wt % aged: pH 7. It is notable that the pH crosses the pK a of the N-terminal histidine (pK a = 6 is the accepted value for isolated histidine) for the more concentrated solution upon aging.
Imaging was carried out using a field emission cryo-electron microscope (JEOL JEM-3200FSC), operating at 200 kV. Images were taken in bright field mode and using zero loss energy filtering (omega type) with a slit width of 20 eV. Micrographs were recorded using a Gatan Ultrascan 4000 CCD camera. The specimen temperature was maintained at −187 °C during the imaging. Vitrified specimens were prepared by using an automated FEI Vitrobot device using Quantifoil 3.5/1 holey carbon copper grids with a hole size of 3.5 μm. Just prior to use, grids were plasma cleaned using a Gatan Solarus 9500 plasma cleaner and then transferred into the environmental chamber of a FEI Vitrobot at room temperature and 100% humidity. Thereafter, 3 μL of sample solution was applied on the grid, and it was blotted twice for 5 s and then vitrified in a 1/1 mixture of liquid ethane and propane at a temperature of −180 °C. The grids with vitrified sample solution were maintained at liquid nitrogen temperature and then cryo-transferred to the microscope.

[4] = pH of aqueous solutions (pH strips); type: physicochemical
Method: as §1

[5] = ESI-MS integrity and appearance of solution after aging; type: physicochemical
Method: Semaglutide was purchased from Bioserv (Calibre Scientific, Rotherham, UK). The purity by HPLC was >95%, and it was supplied in nonsalt (base) form. The molar mass is M = 4115.7 g mol^–1 (4113.6 g mol^–1 expected). Purity (by HPLC) is >98%.
as §1

[6] = 0.5 wt % in water, aged 40 days, Diamond synchrotron
[7] = 0.5 wt %, aged 40 days, Diamond synchrotron, fixed for the fits
[8] = 1 wt % in water, aged 40 days, Diamond synchrotron
[9] = 1 wt %, aged 40 days, Diamond synchrotron, fixed for the fits

For Semaglutide, the “critical micelle concentration (CMC)” value [1] was 0.06 wt % and 0.06 ± 0.005 wt %, the “TEER, % of the initial TEER” value (Caco-2 cells; aged (40 days, 4 °C) semaglutide 0.02 wt %, after 2–4 h) was “around 90%” and the “TEER, % of the initial TEER” value (Caco-2 cells; fresh semaglutide 0.02 wt %, after 30 min) was “around 80%”. The “radius of gyration Rg (Gaussian coils)” value ([2]; 0.1 wt % in water, aged 40 days, Diamond synchrotron) was 1.57 nm, the “micelle molar mass M mic” value ([2]; 0.1 wt % in water, aged 40 days, from SAXS forward scattering I(0) = 0.0025 cm^–1) was 9111 g mol^–1 and the association number p ([2]; 0.1 wt % in water, aged 40 days, from SAXS forward scattering I(0), p = Mmic/Mmol) was “≈ 2.2”. The “hard sphere radii R HS from the structure factor” value ([2]; 0.5 and 1 wt % aged solutions) was 2.23–2.54 nm, the “hard sphere radius RHS” value [2, 6] was 2.23 nm and the “effective charge modulus per micelle z eff” value [2, 6] was 9.81. For the same substance, the “micelle inner core radius Ri” value [2, 7] was 1.50 nm, the “micelle outer radius Ro ± Gaussian polydispersity” value [2, 7] was 2.31±0.59 nm and the “hard sphere radius RHS” value [2, 8] was 2.54 nm. For the same substance, the “effective charge modulus per micelle z eff” value [2, 8] was 10.8, the association number p ([2]; 1 wt % in water, aged, rough estimate from the ratio of low-q intensity for 1 and 0.1 wt %) was 12–15 and the “hard sphere radius RHS” value ([2]; 1 wt %, Lab SAXS) was 2.54 nm. For the same substance, the “radius of gyration Rg (additional Gaussian coil term)” value ([2]; 1 wt %, Lab SAXS, term for high q scattering) was 0.8 nm, the “effective charge modulus per micelle z eff” value ([2]; 1 wt %, Lab SAXS) was 9.00 and the “micelle inner core radius Ri” value ([2]; 1 wt %, Lab SAXS) was 1.50 nm. For the same substance, the “micelle outer radius Ro ± Gaussian polydispersity” value ([2]; 1 wt %, Lab SAXS) was 2.31±0.59 nm, the “micelle inner core radius Ri” value [2, 9] was 1.50 nm and the “micelle outer radius Ro ± Gaussian polydispersity” value [2, 9] was 2.31±0.59 nm. The micelle radius ([2]; as determined from cryo-TEM and SAXS, aged solutions at sufficiently high concentration) was 2 nm, the “diameter of micelle-like structures” value ([3]; 1 wt % in water, aged 40 days at 4 °C, cryo-TEM) was less than 5 nm and the “morphology by cryo-TEM, further aging” value ([3]; 1 wt % sample aged 79 days, compared to the 40-day aged sample) was “no further change in morphology”. For the same substance, the “morphology by cryo-TEM” value ([3]; freshly dissolved 1 wt % solution in water) was “irregular clustered morphology”, the pH of solution ([4]; 0.1 wt % in ultrapure water, aged 40 days at 4 °C) was 7 and the pH of solution ([4]; 0.1 wt % in ultrapure water, fresh) was 6.5. The pH of solution ([4]; 1 wt % in ultrapure water, aged 40 days at 4 °C) was 7, the pH of solution ([4]; 1 wt % in ultrapure water, fresh) was 5.5 and the “chemical stability in solution (degradation)” value ([5]; aqueous solution, 40 days of aging at 4 °C protected from light, ESI-MS) was “No evidence for degradation in solution was observed”. For the same substance, the appearance of solutions ([5]; solutions in pure water prepared in glass vials) was “transparent”.
